{"source": "patent US8580267B2", "about": "“Immunocytokines for tumour therapy with chemotherapeutic agents” (Philogen S.p.A., priority 2008, dated 2013)", "molecules": {"B1": {"name": "F16: human monoclonal antibody specific to the extra-domain A1 of tenascin C; used in biotinylated SIP format for immunohistochemistry (antibody, V domains shown)", "VH": "EVQLLESGGGLVQPGGSLRLSCAASGFTFSRYGASWVRQAPGKGLEWVSAISGSGGSTYYADSVKGRFTISRDNSKNTLYLQMNSLRAEDTAVYYCAKAHNAFDYWGQGTLVTVSR", "VL": "SSELTQDPAVSVALGQTVRITCQGDSLRSYYASWYQQKPGQAPVLVIYGKNNRPSGIPDRFSGSSSGNTASLTITGAQAEDEADYYCNSSVYTMPPVVFGGGTKLTVL"}, "B2": {"name": "improved variant of F16: 4A1-F16 having the Ala to Met mutation in VH CDR1, giving VH CDR1 SEQ ID NO: 18 (antibody, V domains shown)", "VH": "B1 VH with A34M", "VL": "B1 VL"}}, "key": {"[1]": {"test_system": "subcutaneous U87 glioblastoma", "assay": "therapy study in subcutaneous glioma mouse model", "conditions": "for effect on tumour growth: five administrations days 12-24, F16-IL2 20 μg i.v., temozolomide 0.525 mg i.p., temozolomide result by day 30", "experimental": "Subcutaneous glioblastoma bearing mice were obtained by a s.c. flank injection of 5×10^6 U87 cells in 8-week old female BALB/c nude mice [66]. Twelve days after tumour cell implantation, when tumours had reached a size of 250-300 mm^3, mice were staged to maximize uniformity among the groups (n=5).\n(§2) One group was injected i.v. (lateral tail vein) with 20 μg of F16-IL2 (corresponding to 6.6 μg of IL2) in a total volume of 100 μl PBS solution (Phosphate Buffer Saline), one was injected i.p. with 0.525 mg of temozolomide (corresponding to 75 mg/m^2) in a total volume of 150 μl saline 10% DMSO solution, a third group received both the i.v. injection of 20 μg F16-IL2 and the i.p. of 0.525 mg temozolomide, finally, the control group was injected i.p. with 150 μl of saline 10% DMSO.\n(§3) A schedule of five total administrations was established: on days 12, 15, 18, 21, 24 from the tumour cell injection into mice (day 0).\n(§4) Mice were monitored daily and tumours were measured with a digital caliper three times per week. Tumour volume was estimated using the formula: volume=length×width^2/2. Animals were sacrificed when tumours approached a volume of 3,000 mm^3 or when tumours turned necrotic and bleeding, according to the Swiss regulations and under a project license granted by the Veterinäramt des Kantons Zürich (198/2005).\nTumour volumes are shown as average ±SD or SE. Kaplan-Meier survival curves were performed to display therapeutic efficacy in the subcutaneous glioma model."}, "[2]": {"assay": "body weight of mice in the subcutaneous glioblastoma therapy study", "assay_type": "in vivo, BALB/c nude mice", "experimental": "as §2, §3, §4"}, "[3]": {"test_system": "subcutaneous U87 tumours", "assay": "quantitative biodistribution analysis in mice bearing subcutaneous U87 tumours", "assay_type": "in vivo, BALB/c nude mice", "conditions": "radioiodinated F16-IL2 i.v., 24 h after injection", "method": "(§1) The in vivo targeting performance of F16-IL2 was evaluated by quantitative biodistribution analysis. […] Antibody immunoreactivity after labelling was evaluated by loading a sample of radiolabelled F16-IL2 onto TNC-A1-Sepharose resin, followed by radioactive counting of the flow-through and of the eluate fractions. Immunoreactivity, defined as the ratio between the counts of the eluted protein and the sum of the counts of the eluted and flow-through fractions, was 84%. Mice were sacrificed 24 hours after injection of F16-IL2 (10 μg, 3.6 μCi per mouse). Organs were weighed and radioactivity was counted with a Packard Cobra gamma counter. Radioactivity content of representative organs was expressed as the percentage of the injected dose per gram of tissue (% ID/g)."}, "[4]": {"molecular_target": "T1, TNC-A1 (Homo sapiens, UniProt P24821)", "T1 construct": "loading a sample of radiolabelled F16-IL2 onto TNC-A1-Sepharose resin", "T1 sequence (P24821 1076-1165 limits assumed)": "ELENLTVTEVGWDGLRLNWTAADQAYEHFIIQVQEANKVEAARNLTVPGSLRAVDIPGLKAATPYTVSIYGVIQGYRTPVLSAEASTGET", "assay": "immunoreactivity after radiolabelling on TNC-A1-Sepharose resin", "assay_type": "binding", "conditions": "radiolabelled F16-IL2 on TNC-A1-Sepharose resin", "method": "as §1"}, "[5]": {"test_system": "s.c. U87 tumours", "assay": "immunofluorescence assessment of tumour-infiltrating cells and microvascular density in subcutaneous glioma xenografts", "assay_type": "in vivo, Balb/c nude mice", "conditions": "anti-human IL2 staining, after three injections", "method": "To evaluate the role of inflammatory cell responses in vivo, female Balb/c nude mice bearing s.c. U87 tumours (3 mice per group) were treated on days 12, 15 and 18 after tumour cell implantation with either saline 10% DMSO (i.p.), F16-IL2 (i.v.), temozolomide (i.p.), and F16-IL2 (i.v.) plus temozolomide (i.p.). Mice were sacrificed 24 hours after the third injection, and tumours were excised and snap-frozen in OCT. […]\nSections of 10 μm thickness were treated with ice-cold acetone, rehydrated in PBS and blocked with PBS 10% donkey serum+10% goat serum. […] Bound antibody was detected with fluorescent Alexa488- or Alexa594-coupled secondary antibodies (donkey anti-rat or goat anti-rabbit, BD Biosciences Pharmingen) and DAPI in a PBS 12% BSA solution.\nIn each tumour section, the staining given by the primary antibodies was quantified in three representative 10× microscopic images using the ImageJ software (http://rsb.info.nih.gov/ij/)."}, "[6]": {"molecular_target": "T2, A1 domain of tenascin-C (Homo sapiens, UniProt P24821)", "T2 construct": "from tissue; host or cells: human glioblastoma surgical specimens; U87 glioblastoma xenografts grown s.c. in nude mice", "T2 sequence (P24821 23-2201)": "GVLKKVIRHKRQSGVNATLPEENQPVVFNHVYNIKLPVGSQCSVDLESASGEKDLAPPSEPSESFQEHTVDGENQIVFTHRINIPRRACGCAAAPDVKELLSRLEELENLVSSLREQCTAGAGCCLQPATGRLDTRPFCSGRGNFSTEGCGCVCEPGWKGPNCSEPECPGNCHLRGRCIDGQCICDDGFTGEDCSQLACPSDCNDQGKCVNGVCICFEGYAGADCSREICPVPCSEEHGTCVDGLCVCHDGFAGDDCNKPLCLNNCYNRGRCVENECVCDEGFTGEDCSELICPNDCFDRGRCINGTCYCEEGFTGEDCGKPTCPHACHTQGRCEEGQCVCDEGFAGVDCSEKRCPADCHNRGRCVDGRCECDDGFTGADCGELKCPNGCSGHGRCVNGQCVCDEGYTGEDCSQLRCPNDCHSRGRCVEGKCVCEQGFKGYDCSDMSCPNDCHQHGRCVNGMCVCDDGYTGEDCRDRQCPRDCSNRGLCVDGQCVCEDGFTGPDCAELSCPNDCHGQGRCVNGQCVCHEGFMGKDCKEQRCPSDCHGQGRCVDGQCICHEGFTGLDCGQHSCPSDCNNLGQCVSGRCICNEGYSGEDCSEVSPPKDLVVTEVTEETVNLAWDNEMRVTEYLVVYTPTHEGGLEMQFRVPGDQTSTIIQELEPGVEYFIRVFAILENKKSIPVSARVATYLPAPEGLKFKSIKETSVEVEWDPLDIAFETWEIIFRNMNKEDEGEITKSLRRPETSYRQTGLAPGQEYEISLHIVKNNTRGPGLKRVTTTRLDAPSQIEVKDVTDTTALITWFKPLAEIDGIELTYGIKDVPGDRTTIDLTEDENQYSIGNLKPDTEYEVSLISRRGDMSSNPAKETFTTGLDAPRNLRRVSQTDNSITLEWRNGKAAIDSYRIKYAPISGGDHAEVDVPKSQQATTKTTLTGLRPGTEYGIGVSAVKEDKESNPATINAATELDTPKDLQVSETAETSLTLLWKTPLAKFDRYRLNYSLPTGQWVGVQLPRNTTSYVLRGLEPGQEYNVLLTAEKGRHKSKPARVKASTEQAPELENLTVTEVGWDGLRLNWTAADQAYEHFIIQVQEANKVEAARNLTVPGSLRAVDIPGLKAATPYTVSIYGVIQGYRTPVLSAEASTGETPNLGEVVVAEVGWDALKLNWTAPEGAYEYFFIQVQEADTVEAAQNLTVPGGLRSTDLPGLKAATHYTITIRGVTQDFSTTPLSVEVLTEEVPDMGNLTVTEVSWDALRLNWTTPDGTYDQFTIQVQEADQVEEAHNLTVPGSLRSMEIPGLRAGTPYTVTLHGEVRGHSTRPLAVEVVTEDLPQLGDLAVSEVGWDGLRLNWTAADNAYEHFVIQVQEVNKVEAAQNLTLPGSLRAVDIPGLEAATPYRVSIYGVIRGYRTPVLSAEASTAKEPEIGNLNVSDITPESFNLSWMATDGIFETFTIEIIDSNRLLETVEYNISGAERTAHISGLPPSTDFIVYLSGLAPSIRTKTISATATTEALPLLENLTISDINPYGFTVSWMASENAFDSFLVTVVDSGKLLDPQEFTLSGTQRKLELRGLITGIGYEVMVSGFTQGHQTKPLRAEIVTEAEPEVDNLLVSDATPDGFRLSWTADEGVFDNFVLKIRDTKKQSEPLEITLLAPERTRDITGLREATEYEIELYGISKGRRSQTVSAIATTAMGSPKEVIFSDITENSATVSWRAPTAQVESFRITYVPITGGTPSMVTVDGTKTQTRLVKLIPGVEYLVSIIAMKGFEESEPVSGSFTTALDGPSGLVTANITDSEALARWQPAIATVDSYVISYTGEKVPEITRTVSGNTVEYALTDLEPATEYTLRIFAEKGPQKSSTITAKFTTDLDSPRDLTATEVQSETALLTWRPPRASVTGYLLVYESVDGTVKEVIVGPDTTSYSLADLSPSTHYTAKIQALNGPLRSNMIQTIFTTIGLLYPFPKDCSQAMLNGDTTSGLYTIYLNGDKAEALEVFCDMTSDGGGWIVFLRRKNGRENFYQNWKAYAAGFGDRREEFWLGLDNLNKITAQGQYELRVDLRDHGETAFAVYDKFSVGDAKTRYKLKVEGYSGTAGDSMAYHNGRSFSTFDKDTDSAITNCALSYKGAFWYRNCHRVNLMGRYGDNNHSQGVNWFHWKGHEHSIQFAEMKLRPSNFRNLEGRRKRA", "assay": "immunohistochemistry on human glioblastoma specimens and U87 xenografts with F16", "conditions": "biotinylated SIP format, 2 μg/ml; patterns and intensities comparable to L19", "method": "Freshly frozen human glioblastoma tissues were received from the Neurosurgery department of Basel University Hospital, Basel, Switzerland, and were stored at −80° C.\nFor immunohistochemical procedures, the F16 antibody was used in biotinylated small immunoprotein (SIP) format. F16 is a human monoclonal antibody specific to the extra-domain A1 of tenascin C [25]. […] The SIP antibody format consists of a covalent homodimer in which each monomeric unit comprises a scFv fused to a human CH4 domain of the secretory isoform S2 of human IgE (as exemplified for antibody L19 in ref. [65]). This domain promotes the formation of homodimers that are further stabilized by disulfide bonds between the C-terminal cysteine residues, resulting in a 75 kDa homobivalent miniantibody. This SIP antibody was further biotinylated in order to avoid background staining given by the human endogenous IgE.\nSections of 10 μm thickness were treated with ice-cold acetone, rehydrated in TBS (50 mM Tris, 100 mM NaCl, 0.001% Aprotinin, pH 7.4) and blocked with TBS 20% fetal calf serum. Biot-(SIP) F16 antibody was added onto the sections in a final concentration of 2 μg/ml. Bound antibody was detected with streptavidin-alkaline phosphatase complex (Biospa). Fast Red (Tablets Set, Sigma) was used as phosphatase substrate and sections were counterstained with Gill's hematoxylin no. 2 (Sigma). […]"}, "[7]": {"molecular_target": "T3, extra-domain A1 of tenascin C (Homo sapiens, UniProt P24821)", "T3 construct": "F16 is a human monoclonal antibody specific to the extra-domain A1 of tenascin C [25]", "T3 sequence (P24821 1076-1165 limits assumed)": "T1 sequence (P24821 1076-1165 limits assumed)", "assay": "real-time interaction analysis on a BIAcore 3000 instrument", "assay_type": "binding", "conditions": "after affinity maturation"}, "[8]": {"molecular_target": "tenascin-C (Homo sapiens, UniProt P24821)", "sequence (P24821 23-2201)": "as above", "assay": "binding of F16 with Ala to Met mutation in VH CDR1", "conditions": "Ala to Met in position 4 of VH CDR1"}}, "note": "Changes are numbered by the printed parent chain.", "data": [{"molecule": "F16-IL2: clinical-stage immunocytokine consisting of human IL-2 fused to the human antibody F16, specific to the A1 domain of tenascin-C", "values": [{"measurement": "sacrifice of the last mouse, day from tumour cell inoculation", "setting": "[1]; Kaplan-Meier survival, cut-off tumour size 3,000 mm^3", "value": 47, "unit": "days"}, {"measurement": "effect on tumour growth", "setting": "[1]", "value": "minor tumour growth retardation"}, {"measurement": "weight loss", "setting": "[2]; F16-IL2 20 μg i.v., five administrations", "value": "no weight loss"}, {"measurement": "accumulation in the tumour", "setting": "[3]", "value": 2.3, "unit": "% ID/g"}, {"measurement": "tumour-to-blood ratio", "setting": "[3]", "value": 11.5}, {"measurement": "immunoreactivity (eluted counts / eluted + flow-through counts)", "setting": "[4]", "value": 84, "unit": "%"}, {"measurement": "localization of the immunocytokine within the tumour", "setting": "[5]", "value": "perivascular region and in the tumour extracellular matrix"}]}, {"molecule": "Cn1nnc2c(C(N)=O)ncn2c1=O", "note": "[temozolomide, 8-carbamoyl-3-methylimidazo[5,1-d]-1,2,3,5-tetrazin-4(3H)-one]", "values": [{"measurement": "mice in which tumours started growing again", "setting": "[1]; by day 45", "value": "3/5"}, {"measurement": "effect on tumour growth", "setting": "[1]", "value": "virtually complete tumour regression"}, {"measurement": "mice surviving over 3 months from the tumour cell injection", "setting": "[1]; n=5 per group, combination group alive and tumour-free", "value": "two mice"}, {"measurement": "day before which the other animals were sacrificed", "setting": "[1]; tumour had reached the cut-off size", "value": "< 106", "unit": "days"}, {"measurement": "transient weight loss, nadir", "setting": "[2]; after the fifth injection", "value": 10, "unit": "%"}]}, {"molecule": "B1", "values": [{"measurement": "staining of tumour sections", "setting": "[6]", "value": "strongly stain both experimental U87 tumours and glioblastomas from patients"}, {"measurement": "dissociation constant", "setting": "[7]", "value": "low nanomolar range"}]}, {"molecule": "B2", "values": [{"measurement": "binding affinity to tenascin-C", "setting": "[8]", "value": "retaining high affinity binding to tenascin-C"}]}]}
